According to FireProtDB (doi:10.1093/protein/12.8.663):

Details: Homo sapiens; pH 2.7; Thermal; DSC; glycine 0.05 M; reversible: yes; whole UniProt chain shown

B1: Lysozyme C wild type, P61626 (protein)
chain: MKALIVLGLVLLSVTVQGKVFERCELARTLKRLGMDGYRGISLANWMCLAKWESGYNTRATNYNAGDRSTDYGIFQINSRYWCNDGKTPGAVNACHLSCSALLQDNIADAVACAKRVVRDPQGIRAWVAWRNRCQNRDVRQYVQGCGV
- Tm: 64.9 °C
- heat capacity change of unfolding: 1.58 kcal/mol/K
- unfolding enthalpy (calorimetric): 114 kcal/mol
